From US20230364262A1, “VIA CYCLOADDITION BILATERALLY FUNCTIONALIZED ANTIBODIES” (SYNAFFIX B.V., priority 2020, published 2023) come the findings set out here.

The target of assay [1] is T1, CD3 (CD3-positive Jurkat E6.1 cells) (Homo sapiens, UniProt P07766).
T1 construct: Jurkat E6.1 cells, which express CD3 on the cell surface; endogenous in cells; host or cells: Jurkat E6.1
Kind of assay: CD3 binding analysis by FACS on CD3-positive cells. Conditions: Table 1. The protocol: Both cell lines were cultured in RPMI 1640 supplemented with 1% pen/strep and 10% fetal bovine serum at a concentration of 2 × 10^5 to 1 × 10^6 cells/ml. Cells were washed in fresh medium before the experiment and 100,000 cells per well were seeded in a 96-wells plate (duplicate wells). The dilution series of 6 antibodies were made in phosphate-buffered saline (PBS). The antibodies were diluted 10 times in the cell suspension and incubated at 4° C. in the dark for 30 minutes. After incubation, the cells were washed twice in cold PBS / 0.5% BSA, and incubated with anti-HIS-PE (only for 200) or anti-lgG1-PE (for all other compounds) at 4° C., in the dark for 30 minutes. After the second incubation step, the cells were washed twice. 7AAD was added as a live-dead staining. Detection of the fluorescence in the Yellow-B channel (anti-IgG1-PE and anti-HIS-PE) and the Red-B channel (7AAD) was done with the Guava 5HT flow cytometer. Median fluorescence intensity in the Yellow-B channel (anti-IgG1-PE and anti-HIS-PE) in life cells was determined with Kaluza software.

In assay [2] the target is CD3 (UniProt P07766). In words: flow cytometry on Jurkat E6.1 cells, 31.6 nM, anti-HIS-PE. For orientation: A flow cytometer gives signals particle by particle.
Sequence of CD3 (P07766 23-207): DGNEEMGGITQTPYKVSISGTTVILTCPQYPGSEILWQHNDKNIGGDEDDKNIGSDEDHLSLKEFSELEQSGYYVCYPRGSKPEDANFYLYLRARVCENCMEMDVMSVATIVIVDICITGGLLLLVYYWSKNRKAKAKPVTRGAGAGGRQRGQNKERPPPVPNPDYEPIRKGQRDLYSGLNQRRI
Assay [3] addresses CD3 (UniProt P07766). Kind of assay: flow cytometry on Jurkat E6.1 cells, 1000 nM, anti-HIS-PE.
Assay [4] has as its target CD3 (UniProt P07766). In words: flow cytometry on Jurkat E6.1 cells, 316 nM, anti-HIS-PE.
The target of assay [5] is CD3 (UniProt P07766). In words: flow cytometry on Jurkat E6.1 cells, 100 nM, anti-HIS-PE.
Assay [6] has as its target CD3 (UniProt P07766). In words: flow cytometry on Jurkat E6.1 cells, 0.32 nM, anti-HIS-PE.
The target of assay [7] is CD3 (UniProt P07766). Kind of assay: flow cytometry on Jurkat E6.1 cells, 3.16 nM, anti-HIS-PE.
The target of assay [8] is CD3 (UniProt P07766). In words: flow cytometry on Jurkat E6.1 cells, 10 nM, anti-HIS-PE.
Assay [9] deals with CD3 (UniProt P07766). In words: flow cytometry on Jurkat E6.1 cells, 1 nM, anti-HIS-PE.

T1 sequence (P07766 23-207): as above
T1 sequence (P09693 23-182 partner): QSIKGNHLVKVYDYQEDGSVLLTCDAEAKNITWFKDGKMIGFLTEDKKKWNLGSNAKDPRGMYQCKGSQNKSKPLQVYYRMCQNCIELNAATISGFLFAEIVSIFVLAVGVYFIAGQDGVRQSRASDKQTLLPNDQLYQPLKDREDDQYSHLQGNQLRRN
T1 sequence (P04234 22-171 partner): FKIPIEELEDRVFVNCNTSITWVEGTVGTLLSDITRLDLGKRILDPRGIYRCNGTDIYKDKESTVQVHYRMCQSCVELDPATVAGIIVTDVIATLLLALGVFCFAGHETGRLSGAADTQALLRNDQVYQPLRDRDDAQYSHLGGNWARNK
T1 sequence (P20963 22-164 partner): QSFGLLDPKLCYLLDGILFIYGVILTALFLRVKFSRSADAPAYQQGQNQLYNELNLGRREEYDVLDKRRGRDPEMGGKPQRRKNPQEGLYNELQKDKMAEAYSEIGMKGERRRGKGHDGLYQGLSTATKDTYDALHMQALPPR

Take Rituximab: in assay [1], the “concentration-dependent binding to the CD3 positive Jurkat E6.1 cell line” value is on record as “not”.

Take “Humanized OKT3 (hOKT3) with C-terminal sortase A recognition sequence (scFv)”: the median fluorescence intensity with CD3 [2] amounted to 154; with CD3 [3], 417; with CD3 [4], 224; with CD3 [5], 177; with CD3 [6], 63.6; in the assay with CD3 [7], 83.7. Moreover, the median fluorescence intensity in the assay with CD3 [8] was 110; with CD3 [9], 66.2.
